One test concerns the target T1, AKT1 (human, UniProt P31749 1-480, limits assumed).
T1 construct: GST fusion on the Protoarray; also called AKT1_HUMAN; human AKT1
The test is described as follows: SPR. Background: Surface plasmon resonance follows binding to a sensor surface in real time, without labels.

Another test concerns the target T2, transferrin (human, UniProt P02787 20-698).
T2 construct: also called TRF; pooled human transferrin (Sigma)
The test is described as follows: SPR.

A further test addresses T3, NADK (human, UniProt O95544).
T3 construct: GST fusion on the array
T3 sequence (looked up): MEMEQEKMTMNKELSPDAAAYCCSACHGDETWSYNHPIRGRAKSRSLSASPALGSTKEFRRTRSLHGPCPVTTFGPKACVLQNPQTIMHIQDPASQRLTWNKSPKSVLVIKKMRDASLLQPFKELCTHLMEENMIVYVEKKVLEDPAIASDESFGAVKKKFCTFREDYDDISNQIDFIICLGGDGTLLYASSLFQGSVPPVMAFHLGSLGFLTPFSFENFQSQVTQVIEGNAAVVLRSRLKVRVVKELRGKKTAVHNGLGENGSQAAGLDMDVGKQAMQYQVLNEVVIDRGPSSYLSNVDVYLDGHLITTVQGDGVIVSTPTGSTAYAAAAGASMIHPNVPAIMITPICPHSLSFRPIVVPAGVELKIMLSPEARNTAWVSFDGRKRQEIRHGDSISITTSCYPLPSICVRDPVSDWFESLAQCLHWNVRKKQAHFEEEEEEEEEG
The test is described as follows: Invitrogen ProtoArray Human Protein Microarray v4.0; biotinylated synbody, fluorescently labelled streptavidin; fluorescence intensity above background.

For a further test, the target named is T4, PTK2 (human, UniProt Q05397).
T4 construct: GST fusion on the array
T4 sequence (Q05397 whole entry, the tested form may be a part): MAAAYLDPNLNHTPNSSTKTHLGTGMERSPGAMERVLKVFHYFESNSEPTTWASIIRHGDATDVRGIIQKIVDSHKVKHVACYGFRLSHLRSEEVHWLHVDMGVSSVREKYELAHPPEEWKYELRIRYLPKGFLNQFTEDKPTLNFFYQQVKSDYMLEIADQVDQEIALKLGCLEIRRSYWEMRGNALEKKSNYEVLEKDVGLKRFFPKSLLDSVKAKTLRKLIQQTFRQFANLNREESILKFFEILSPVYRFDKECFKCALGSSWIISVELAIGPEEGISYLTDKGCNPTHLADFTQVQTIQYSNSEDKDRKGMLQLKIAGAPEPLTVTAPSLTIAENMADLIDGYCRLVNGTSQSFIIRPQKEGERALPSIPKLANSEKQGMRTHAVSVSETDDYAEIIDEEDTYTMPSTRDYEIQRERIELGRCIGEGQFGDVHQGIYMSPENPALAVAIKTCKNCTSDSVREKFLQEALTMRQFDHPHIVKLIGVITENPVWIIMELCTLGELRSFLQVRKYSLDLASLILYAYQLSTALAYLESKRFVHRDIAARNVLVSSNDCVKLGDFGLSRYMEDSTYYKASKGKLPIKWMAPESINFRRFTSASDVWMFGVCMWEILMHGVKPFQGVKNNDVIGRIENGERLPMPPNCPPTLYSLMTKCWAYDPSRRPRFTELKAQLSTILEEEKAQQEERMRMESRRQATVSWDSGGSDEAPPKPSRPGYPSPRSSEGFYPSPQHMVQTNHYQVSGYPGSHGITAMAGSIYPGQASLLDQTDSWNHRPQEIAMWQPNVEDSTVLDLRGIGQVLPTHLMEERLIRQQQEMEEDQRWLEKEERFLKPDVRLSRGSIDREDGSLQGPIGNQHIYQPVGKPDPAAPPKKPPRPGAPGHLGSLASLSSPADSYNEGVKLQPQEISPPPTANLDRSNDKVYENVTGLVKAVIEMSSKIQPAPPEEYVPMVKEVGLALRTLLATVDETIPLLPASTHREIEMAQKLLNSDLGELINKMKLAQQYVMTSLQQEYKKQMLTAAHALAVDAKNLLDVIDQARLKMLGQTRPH
The description is as above.

The next test addresses T5, ANXA1 (human, UniProt P04083).
T5 construct: GST fusion on the array
T5 sequence (looked up): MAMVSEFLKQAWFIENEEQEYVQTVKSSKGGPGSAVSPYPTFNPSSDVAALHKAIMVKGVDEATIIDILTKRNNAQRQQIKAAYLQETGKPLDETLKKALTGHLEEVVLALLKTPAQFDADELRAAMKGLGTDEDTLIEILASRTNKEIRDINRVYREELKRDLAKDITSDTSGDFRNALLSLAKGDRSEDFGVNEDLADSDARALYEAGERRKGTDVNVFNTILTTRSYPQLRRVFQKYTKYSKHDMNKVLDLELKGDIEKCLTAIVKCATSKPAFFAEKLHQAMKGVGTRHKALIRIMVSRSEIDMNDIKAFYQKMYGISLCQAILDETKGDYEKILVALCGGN
Described as above.

A further test addresses T6, ROCK2 (human, UniProt O75116).
T6 construct: GST fusion on the array
The test is described as above.

The target in another test is T7, CHAF1B (human, UniProt Q13112).
T7 construct: GST fusion on the array
T7 sequence (Q13112 whole entry, the tested form may be a part): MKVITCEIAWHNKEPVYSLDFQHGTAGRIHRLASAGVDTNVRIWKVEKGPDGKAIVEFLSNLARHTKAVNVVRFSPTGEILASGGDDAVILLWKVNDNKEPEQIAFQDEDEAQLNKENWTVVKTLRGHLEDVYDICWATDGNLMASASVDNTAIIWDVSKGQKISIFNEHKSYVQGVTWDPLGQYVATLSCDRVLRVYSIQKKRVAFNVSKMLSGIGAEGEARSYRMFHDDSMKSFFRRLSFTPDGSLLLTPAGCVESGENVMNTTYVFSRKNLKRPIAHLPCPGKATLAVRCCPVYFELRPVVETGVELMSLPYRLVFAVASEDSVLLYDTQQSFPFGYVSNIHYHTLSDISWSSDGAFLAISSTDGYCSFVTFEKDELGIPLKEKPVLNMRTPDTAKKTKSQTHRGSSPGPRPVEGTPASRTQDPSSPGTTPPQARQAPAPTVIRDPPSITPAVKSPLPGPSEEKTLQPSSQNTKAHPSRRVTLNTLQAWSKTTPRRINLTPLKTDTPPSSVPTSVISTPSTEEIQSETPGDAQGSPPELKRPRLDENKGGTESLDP
The test is described as above.

The target in another test is T8, ACTC (human, UniProt P68032).
T8 construct: GST fusion on the array
The test is described as above.

For a further test, the target named is T9, MCCC1 (human, UniProt Q96RQ3).
T9 construct: GST fusion on the array
T9 sequence (looked up): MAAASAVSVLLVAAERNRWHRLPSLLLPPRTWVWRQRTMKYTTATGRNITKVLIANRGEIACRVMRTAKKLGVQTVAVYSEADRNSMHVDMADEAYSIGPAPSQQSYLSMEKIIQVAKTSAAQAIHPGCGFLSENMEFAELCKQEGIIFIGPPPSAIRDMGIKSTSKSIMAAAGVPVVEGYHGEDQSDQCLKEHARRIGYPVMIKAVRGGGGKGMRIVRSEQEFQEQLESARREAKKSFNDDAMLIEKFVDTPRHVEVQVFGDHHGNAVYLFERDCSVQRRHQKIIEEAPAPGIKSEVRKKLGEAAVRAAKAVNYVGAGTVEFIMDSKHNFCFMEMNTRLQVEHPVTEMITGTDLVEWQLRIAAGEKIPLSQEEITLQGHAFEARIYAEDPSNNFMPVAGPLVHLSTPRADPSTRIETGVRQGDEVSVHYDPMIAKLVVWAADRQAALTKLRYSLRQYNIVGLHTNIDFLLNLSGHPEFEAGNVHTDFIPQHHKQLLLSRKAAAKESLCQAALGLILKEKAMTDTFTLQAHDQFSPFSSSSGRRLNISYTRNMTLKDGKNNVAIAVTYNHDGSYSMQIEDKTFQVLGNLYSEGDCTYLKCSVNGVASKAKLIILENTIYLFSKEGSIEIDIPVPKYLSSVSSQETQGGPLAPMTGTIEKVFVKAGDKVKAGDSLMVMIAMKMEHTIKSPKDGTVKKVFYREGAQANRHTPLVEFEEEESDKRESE
The description is as above.

The next test has as its target T10, HTN1 (human, UniProt P15515, limits assumed).
T10 construct: GST fusion on the array
T10 chain (looked up): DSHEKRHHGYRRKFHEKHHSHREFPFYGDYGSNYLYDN
Described as above.

A further test concerns the target T11, CLEC1 (human, UniProt Q8NC01).
T11 construct: GST fusion on the array
T11 sequence (looked up): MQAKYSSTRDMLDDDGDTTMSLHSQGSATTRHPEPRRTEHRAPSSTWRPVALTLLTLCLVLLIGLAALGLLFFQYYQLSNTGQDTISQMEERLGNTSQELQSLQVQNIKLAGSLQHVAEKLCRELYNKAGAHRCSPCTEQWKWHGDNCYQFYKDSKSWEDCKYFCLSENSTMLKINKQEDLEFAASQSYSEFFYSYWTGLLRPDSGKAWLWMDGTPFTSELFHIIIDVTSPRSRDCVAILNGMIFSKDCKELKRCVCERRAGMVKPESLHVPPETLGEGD
The test is described as above.

Usually Kd stands for the free concentration of one partner at which half of the binding sites on the other are occupied at equilibrium, for simple one-to-one binding. Read a low Kd as tighter binding.

Ends that are not written are not given here.

T2 sequence (P02787 20-698 limits assumed): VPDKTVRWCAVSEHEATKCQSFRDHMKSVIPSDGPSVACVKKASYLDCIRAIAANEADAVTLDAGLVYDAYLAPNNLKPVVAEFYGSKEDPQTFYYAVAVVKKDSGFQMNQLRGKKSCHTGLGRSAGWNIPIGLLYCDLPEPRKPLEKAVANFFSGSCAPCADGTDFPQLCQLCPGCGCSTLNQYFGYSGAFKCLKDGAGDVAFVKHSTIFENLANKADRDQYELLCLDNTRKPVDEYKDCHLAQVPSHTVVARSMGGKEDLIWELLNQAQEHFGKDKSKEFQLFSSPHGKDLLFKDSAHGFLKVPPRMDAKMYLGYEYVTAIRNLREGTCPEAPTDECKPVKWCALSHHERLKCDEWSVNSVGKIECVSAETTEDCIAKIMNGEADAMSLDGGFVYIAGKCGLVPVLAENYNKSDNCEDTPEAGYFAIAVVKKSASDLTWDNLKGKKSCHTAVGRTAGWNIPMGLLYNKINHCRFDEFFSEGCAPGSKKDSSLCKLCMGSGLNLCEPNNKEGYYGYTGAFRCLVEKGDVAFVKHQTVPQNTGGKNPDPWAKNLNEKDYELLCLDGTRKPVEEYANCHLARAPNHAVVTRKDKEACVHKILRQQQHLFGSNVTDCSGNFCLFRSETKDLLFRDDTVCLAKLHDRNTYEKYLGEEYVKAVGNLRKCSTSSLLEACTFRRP
T6 sequence (O75116 1-552 limits assumed): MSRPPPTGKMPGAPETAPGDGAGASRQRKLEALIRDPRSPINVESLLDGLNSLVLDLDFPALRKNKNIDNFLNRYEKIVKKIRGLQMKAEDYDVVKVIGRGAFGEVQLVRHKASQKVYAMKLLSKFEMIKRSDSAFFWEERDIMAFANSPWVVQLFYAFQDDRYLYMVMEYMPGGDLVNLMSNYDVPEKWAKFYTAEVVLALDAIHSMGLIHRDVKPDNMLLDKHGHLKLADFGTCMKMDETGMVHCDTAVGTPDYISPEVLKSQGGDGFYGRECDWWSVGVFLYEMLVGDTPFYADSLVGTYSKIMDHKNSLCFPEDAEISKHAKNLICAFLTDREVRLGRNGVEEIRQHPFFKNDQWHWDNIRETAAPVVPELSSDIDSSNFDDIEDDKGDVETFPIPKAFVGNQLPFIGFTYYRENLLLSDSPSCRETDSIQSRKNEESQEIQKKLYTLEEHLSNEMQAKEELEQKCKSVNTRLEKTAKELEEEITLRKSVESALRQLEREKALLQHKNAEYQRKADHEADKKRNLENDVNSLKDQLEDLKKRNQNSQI
T1 sequence (P31749 whole entry, the tested form may be a part): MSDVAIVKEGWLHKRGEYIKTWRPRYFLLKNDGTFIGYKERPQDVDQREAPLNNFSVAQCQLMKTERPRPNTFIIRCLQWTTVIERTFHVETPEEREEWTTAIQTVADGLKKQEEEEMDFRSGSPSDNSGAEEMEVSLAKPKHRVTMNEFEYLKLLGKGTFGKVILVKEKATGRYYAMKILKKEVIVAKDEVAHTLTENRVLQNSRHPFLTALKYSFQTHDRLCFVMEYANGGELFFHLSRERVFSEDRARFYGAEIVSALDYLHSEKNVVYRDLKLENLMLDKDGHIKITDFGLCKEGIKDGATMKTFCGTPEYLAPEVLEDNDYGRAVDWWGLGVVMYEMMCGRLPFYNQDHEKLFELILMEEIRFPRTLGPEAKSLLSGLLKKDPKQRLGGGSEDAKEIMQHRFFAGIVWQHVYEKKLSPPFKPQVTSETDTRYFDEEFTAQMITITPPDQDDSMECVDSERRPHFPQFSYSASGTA
Procedure for ACTC: (§1) The prescribed cover slip was placed over the array and adjusted to remove air bubbles. The array was incubated in a 50 ml conical tube, printed side up, for 1.5 hours at 4 C without shaking. The array was then removed from the conical tube inserted diagonally into the array chamber, kept on ice. 8 ml probing buffer was added to the chamber wall. The cover slip was removed and the array was incubated in probing buffer for 1 minute on ice. The probing buffer was decanted and drained. Two further washings were performed adding 8 ml probing buffer, incubating on ice for 1 minute, and decanting and draining. 5 nM fluorescently labeled streptavidin diluted in 6 ml probing buffer was incubated on the array for 30 minutes on ice in the dark, after which the solution was decanted and drained. Three wash steps were performed, each by adding 8 ml probing buffer, incubating for 1 minute on ice, decanting, and draining. The array was removed from the chamber, centrifuged at 800×g for 5 minutes at room temperature. The array was dried in the dark for 60 minutes at room temperature, after which it was scanned using a fluorescent microarray scanner and data was taken and analyzed.
Procedure for ANXA1: as §1
Procedure for CHAF1B: as §1
Procedure for CLEC1: as §1
Procedure for HTN1: as §1
Procedure for MCCC1: as §1
Procedure for NADK: as §1
Procedure for PTK2: as §1
Procedure for ROCK2: as §1

B1: SYN23-26 (designed binder)
peptide 1: AHKVVPQRQIRHAYNRYGSG
peptide 2: FRGWAHIFFGPHVIYRGGSG
modifications: also: two chains joined by their C-termini to a branching Lys (epsilon/alpha N), Lys linker followed by Cys, Cys thiol biotinylated
notes: Lysine linker followed by cysteine; the thiol of the cysteine biotinylated for the protein array; also called anti-TRF synbody
Turning to B1, the Kd in the test with AKT1 was ~1 nM; with transferrin it was ~141 nM. The binding result is on record as “no binding” with NADK; “no binding” in the test with PTK2; “binds” with ANXA1; “no binding” with ROCK2; “binds” with CHAF1B; “binds” with ACTC. Besides, the binding result with MCCC1, with HTN1 and in the test with CLEC1 was “binds” each time.
